From publication PMC3627919
Values belong to the substance of their own block, whether it stands above or below them.

Experiments:
[1] = biological target: Nfluc416-WASP (human) (UniProt P42768); experiment: split reporter (BiFC, NanoBiT); bimolecular luminescence complementation (split firefly luciferase) in living HEK 293 cells, 24 h after transient cotransfection of the pair (50 ng/well) with pRL-tk; D-luciferin 150 ug/ml; IVIS CCD camera; ratio FL at 600 nm to RL at 500 nm; wild-type pairs also with co-expressed GEF or GAP catalytic domains
[2] = biological target: Nfluc416-PAK (UniProt Q13153); experiment: split-luciferase complementation (BiLC) optical imaging in transiently cotransfected 293 cells; conditions: parent: est. 4.6; read off a plot
[3] = biological target: Nfluc416-PKN (human) (UniProt Q16512); experiment: split reporter (BiFC, NanoBiT); bimolecular luminescence complementation (split firefly luciferase) in living HEK 293 cells, 24 h after transient cotransfection of the pair (50 ng/well) with pRL-tk; D-luciferin 150 ug/ml; IVIS CCD camera; ratio FL at 600 nm to RL at 500 nm; wild-type pairs also with co-expressed GEF or GAP catalytic domains
Nfluc416-PKN (human), sequence (Q16512 13-112): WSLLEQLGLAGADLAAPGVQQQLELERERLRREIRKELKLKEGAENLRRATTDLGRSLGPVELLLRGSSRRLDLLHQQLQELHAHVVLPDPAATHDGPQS

Nfluc416-WASP (human), sequence (P42768 220-288): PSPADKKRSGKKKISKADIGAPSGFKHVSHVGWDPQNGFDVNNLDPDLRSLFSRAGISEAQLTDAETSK

reconstituted luminescence (FL/RL), fold over CDC42 F37A [1]: 12.7 fold
reconstituted luminescence (FL/RL), fold over CDC42 T17N [1]: 6.8 fold
reconstituted luminescence (FL/RL), fold over CDC42 WT [1]: 2.9 fold
Substance: CDC42-Cfluc398 (CDC42 G12V) (from UniProt P60953 1-176; P60953 171-191) (natural protein)

response [2]: 1.4 FL/RL
Substance: Cfluc398-RacI(WT) (from UniProt P63000) F37A

response [2]: 2.1 FL/RL
Substance: Cfluc398-RacI(WT) (from UniProt P63000) T17N

luminescence signal, fold of the active mutant over the wild type [3]: 5.15 fold
Substance: Cfluc398-RhoA(G14V) (from UniProt P61586 1-193) (natural protein)
